Measurements reported in publication doi:10.1101/2021.04.27.441644 (bioRxiv, 2021).

B1: CLIP-170 CG2 fragment (H1 206-288) (domain or fragment)
chain: KKGERELKIGDRVLVGGTKAGVVRFLGETDFAKGEWCGVELDEPLGKNDGAVAGTRYFQCQPKYGLFAPVHKVTKIGFPSTTP
B2: CLIP-170 CG2-S3 fragment (H1 203-350) (domain or fragment)
chain: GSIKKGERELKIGDRVLVGGTKAGVVRFLGETDFAKGEWCGVELDEPLGKNDGAVAGTRYFQCQPKYGLFAPVHKVTKIGFPSTTPAKAKANAVRRVMATTSASLKRSPSASSLSSMSSVASSVSSRPSRTGLLTETSSRYARKISGT
B3: CLIP-170 S2-CG2-S3 fragment (H1 156-350) (domain or fragment)
chain: MVSSSPSTPSNIPQKPSQPAAKEPSATPPISNLTKTASESISNLSEAGSIKKGERELKIGDRVLVGGTKAGVVRFLGETDFAKGEWCGVELDEPLGKNDGAVAGTRYFQCQPKYGLFAPVHKVTKIGFPSTTPAKAKANAVRRVMATTSASLKRSPSASSLSSMSSVASSVSSRPSRTGLLTETSSRYARKISGT

Molecular target: filamentous actin (F-actin) (rabbit, UniProt P68135 1-377)
Test: co-sedimentation

Row | Binder | Kd [µM]
1 | B1 | ~90
2 | B2 | 20
3 | B3 | ~10
